T1: human intermediate-affinity IL-2 receptor complex, IL-2 CD122/CD132 (β/γ), on cells (human, UniProt P14784 27-551; P31785 23-369)
T1 sequence (looked up) 1: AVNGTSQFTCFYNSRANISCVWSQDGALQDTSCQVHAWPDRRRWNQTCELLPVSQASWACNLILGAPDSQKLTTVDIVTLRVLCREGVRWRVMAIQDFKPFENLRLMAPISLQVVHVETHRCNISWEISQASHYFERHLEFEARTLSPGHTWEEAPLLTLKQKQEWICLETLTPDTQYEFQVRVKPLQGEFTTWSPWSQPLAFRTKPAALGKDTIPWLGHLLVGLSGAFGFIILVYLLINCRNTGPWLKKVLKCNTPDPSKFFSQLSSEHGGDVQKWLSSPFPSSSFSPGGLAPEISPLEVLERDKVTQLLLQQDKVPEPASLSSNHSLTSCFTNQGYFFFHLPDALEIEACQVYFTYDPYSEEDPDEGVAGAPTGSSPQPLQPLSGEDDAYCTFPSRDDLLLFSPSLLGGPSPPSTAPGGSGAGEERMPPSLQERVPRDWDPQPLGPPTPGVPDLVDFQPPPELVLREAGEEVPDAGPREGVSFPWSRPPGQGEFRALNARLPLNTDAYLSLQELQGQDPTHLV
T1 sequence (looked up) 2: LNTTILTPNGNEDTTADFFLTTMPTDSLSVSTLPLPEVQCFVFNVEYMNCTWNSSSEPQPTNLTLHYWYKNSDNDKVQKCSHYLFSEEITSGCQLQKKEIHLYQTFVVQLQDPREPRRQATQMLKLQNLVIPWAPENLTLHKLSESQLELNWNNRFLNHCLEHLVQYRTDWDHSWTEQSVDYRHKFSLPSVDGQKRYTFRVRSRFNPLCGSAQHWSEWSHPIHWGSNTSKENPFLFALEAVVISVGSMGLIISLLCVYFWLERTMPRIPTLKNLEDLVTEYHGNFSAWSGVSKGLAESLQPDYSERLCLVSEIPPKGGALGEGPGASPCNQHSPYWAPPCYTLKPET

T2: human high-affinity IL-2 receptor complex, IL-2 CD25/CD122/CD132 (α/β/γ), on cells (human, UniProt P01589 22-272; P14784 27-551; P31785 23-369)
T2 sequence (looked up) 1: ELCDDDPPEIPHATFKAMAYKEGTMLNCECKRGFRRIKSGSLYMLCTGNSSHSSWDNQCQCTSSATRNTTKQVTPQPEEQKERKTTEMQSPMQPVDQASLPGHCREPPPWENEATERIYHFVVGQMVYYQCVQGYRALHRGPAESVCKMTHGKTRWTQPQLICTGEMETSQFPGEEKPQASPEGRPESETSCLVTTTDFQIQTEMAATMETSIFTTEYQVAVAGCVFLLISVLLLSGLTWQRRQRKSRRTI
T2 sequence (looked up) 2: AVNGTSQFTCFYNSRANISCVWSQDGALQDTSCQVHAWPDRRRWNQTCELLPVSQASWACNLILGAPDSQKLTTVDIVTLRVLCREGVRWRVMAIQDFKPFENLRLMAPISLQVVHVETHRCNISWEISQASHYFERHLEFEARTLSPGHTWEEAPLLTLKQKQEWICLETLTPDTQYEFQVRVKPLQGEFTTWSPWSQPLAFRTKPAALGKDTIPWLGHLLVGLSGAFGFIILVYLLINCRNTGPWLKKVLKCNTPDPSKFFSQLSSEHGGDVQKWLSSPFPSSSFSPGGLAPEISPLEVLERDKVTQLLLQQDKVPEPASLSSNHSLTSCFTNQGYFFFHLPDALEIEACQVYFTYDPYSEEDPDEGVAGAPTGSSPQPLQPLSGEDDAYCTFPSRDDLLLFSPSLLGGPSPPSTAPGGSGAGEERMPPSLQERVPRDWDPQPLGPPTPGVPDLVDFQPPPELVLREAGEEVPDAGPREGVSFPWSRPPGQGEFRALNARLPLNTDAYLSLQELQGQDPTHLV
T2 sequence (looked up) 3: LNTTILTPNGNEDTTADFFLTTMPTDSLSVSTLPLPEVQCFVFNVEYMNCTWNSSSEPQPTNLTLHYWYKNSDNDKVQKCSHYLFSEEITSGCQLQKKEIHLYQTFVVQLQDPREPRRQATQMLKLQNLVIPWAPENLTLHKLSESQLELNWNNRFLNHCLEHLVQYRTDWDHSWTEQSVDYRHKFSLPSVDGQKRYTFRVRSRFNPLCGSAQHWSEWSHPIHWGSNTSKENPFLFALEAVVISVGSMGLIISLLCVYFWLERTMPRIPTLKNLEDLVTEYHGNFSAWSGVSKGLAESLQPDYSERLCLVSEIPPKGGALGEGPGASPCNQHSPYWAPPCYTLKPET


Tests used:
[1] = target: T1, human intermediate-affinity IL-2 …; experiment: cell-based or functional assay
[2] = target: T2, human high-affinity IL-2 receptor …; experiment: cell-based or functional assay
[3] = system: Treg cells (CD3+CD4+CD25+ Foxp3+); assay type: cell-based, mouse (C57BL/6); conditions: protein from supernatants of virus-infected HeLa cells, 15 minutes incubation

| Molecule | EC50 (read off the curve), pSTAT5 MFI in NK cells of hPBMC [1] [nM] | EC50 (read off the curve), pSTAT5 MFI in Treg cells of hPBMC [2] [nM] | activity on Treg cells (concentration potency at inducing pSTAT5) compared to wild-type IL-2 [3] |
| --- | --- | --- | --- |
| Fc-IL2-T41N:K43T-E62N:K64T (Fc fusion) GGGGSGGGGSAPTSSSTKKTQLQLEHLLLDLQMILNGINNYKNPKLTRMLNFTFYMPKKATELKHLQCLEENLTPLEEVLNLAQSKNFHLRPRDLISNINVIVLELKGSETTFMCEYADETATIVEFLNRWITFCQSIISTLT | ~6 | ~20 |  |
| Fc-IL2-T41N:K43T-L72N:Q74T (Fc fusion) GGGGSGGGGSAPTSSSTKKTQLQLEHLLLDLQMILNGINNYKNPKLTRMLNFTFYMPKKATELKHLQCLEEELKPLEEVLNNATSKNFHLRPRDLISNINVIVLELKGSETTFMCEYADETATIVEFLNRWITFCQSIISTLT | ~6 | ~20 |  |
| IL-2gv1 (protein) APTSSSTKKTQLQLEHLLLDLQMILNGINNYKNPKLTNMTTFNFTMPKKATELKHLQCLEEELKPLEEVLNLAQSKNFHLRPRDLISNINVIVLELKGSETTFMCEYADETATIVEFLNRWITFCQSIISTLT |  |  | reduced activity on Treg cells |
| IL-2gv2 (protein) APTSSSTKKTQLQLEHLLLDLQMILNGINNYKNPKLTRMLTFNFTMPKKATELKHLQCLEEELKPLEEVLNNATSKNFHLRPRDLISNINVIVLELKGSETTFMCEYADETATIVEFLNRWITFCQSIISTLT |  |  | reduced activity on Treg cells |
